The results in this text go back to patent US20240287172A1 (SCIRHOM, published 2024).

The target of one test is T1, hiR2-FL-T578A-T7 (human, UniProt Q6PJF5 1-856).
T1 sequence: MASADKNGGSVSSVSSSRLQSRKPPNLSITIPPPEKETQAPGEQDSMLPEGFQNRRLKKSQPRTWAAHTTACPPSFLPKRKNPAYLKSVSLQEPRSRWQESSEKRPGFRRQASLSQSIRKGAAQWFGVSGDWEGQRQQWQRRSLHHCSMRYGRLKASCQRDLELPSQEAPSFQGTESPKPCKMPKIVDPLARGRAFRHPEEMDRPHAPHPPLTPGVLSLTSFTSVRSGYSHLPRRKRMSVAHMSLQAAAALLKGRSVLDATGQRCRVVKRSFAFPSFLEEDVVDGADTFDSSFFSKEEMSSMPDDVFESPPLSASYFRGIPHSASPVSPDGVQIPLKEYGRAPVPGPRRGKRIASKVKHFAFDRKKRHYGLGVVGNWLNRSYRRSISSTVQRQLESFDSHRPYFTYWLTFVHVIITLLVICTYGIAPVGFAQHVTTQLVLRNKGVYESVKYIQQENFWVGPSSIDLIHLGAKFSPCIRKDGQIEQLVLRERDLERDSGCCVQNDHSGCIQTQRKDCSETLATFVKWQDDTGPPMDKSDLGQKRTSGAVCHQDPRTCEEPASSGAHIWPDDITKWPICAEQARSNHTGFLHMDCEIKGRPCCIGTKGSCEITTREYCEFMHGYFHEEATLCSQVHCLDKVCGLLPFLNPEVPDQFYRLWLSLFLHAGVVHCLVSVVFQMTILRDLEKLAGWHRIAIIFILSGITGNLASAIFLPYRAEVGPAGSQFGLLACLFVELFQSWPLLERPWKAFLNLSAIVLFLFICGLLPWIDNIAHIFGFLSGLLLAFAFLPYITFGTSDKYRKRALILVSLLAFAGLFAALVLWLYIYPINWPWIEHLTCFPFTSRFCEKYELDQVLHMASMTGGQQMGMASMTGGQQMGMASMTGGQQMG
The test can be described thus: FACS on MEF-DKO cells expressing the variant, 3 µg/ml antibody. A digest of the protocol:
(§1)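 Cells were stained with purified antibody at 3 μg/ml in FACS buffer for 1 hour on ice, with buffer-only controls. Bound antibody was detected with PE-conjugated goat anti-mouse IgG F(ab′)2 at 1:100, 1 hour on ice in the dark, followed by flow cytometry.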

A further test addresses T2, hiR2-FL-S583A-T7 (human, UniProt Q6PJF5 1-856).
T2 sequence: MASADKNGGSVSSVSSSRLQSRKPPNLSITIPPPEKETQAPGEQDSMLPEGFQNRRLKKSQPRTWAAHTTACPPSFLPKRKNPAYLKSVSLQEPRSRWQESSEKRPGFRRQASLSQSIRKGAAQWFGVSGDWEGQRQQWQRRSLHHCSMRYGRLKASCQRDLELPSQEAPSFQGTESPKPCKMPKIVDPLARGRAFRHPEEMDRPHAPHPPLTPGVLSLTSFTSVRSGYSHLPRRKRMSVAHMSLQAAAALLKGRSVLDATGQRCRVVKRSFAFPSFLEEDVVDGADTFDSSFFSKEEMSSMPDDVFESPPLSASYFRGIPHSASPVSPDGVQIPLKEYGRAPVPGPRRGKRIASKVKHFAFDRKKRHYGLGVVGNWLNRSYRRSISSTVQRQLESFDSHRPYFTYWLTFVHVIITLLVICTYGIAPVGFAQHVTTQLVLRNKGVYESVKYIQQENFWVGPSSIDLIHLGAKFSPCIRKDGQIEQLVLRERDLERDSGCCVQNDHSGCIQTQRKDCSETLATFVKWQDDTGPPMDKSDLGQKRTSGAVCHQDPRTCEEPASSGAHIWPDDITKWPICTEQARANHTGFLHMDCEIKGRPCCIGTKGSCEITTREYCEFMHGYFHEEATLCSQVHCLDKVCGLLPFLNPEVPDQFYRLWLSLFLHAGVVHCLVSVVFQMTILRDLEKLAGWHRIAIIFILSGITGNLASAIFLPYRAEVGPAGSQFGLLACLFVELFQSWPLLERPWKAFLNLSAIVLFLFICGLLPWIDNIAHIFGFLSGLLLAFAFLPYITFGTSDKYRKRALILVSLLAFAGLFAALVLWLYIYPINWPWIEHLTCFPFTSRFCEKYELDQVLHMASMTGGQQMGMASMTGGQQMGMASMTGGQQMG
The test is described as above. A digest of the protocol: as §1

A value given as a limit tells only on which side of the number the result lay.

B1: antibody 3 (antibody, V domains shown)
VH: QVTLKESGPGILQPSQTLSLTCSFSGFSLTTFAMGIGWVRQPSGKGLEWLAHIWWDGEKYNNPVLKSRLTISKDTSKNQVFLRIANVDTPDTATYYCARISSIYYIIDNWGQGTSVTVSS
VL: DIVLTQSPATLSVTPGHSVSLSCRASQSISNNLHWYQKKSHESPRLLIKYVSQSISGIPSRFSGSGSGTDFTLSINSVETEDFGMYFCQQSYNWPLTFGAGTKLELK
notes: mouse IgG, kappa light chain; also called clone #3; purified antibody 3
With B1, the “loss of binding vs wild type” value with hiR2-FL-T578A-T7 and with hiR2-FL-S583A-T7 was at least 30% throughout.
